Measured values published in patent US20100160556A1, “GLP-1 Fusion Peptides Conjugated to Polymer(s), Their Production and Use” (priority 2007, published 2010).

Tested on: type II diabetic mice (C57BL/Ks-Lepr db/db)
Experiment: In vivo bioactivity in type II diabetic mice
Conditions: 5 μg peptide s.c. twice a day, day 2, 4, 7, 10
Method: 11-week-old type II diabetic mice (C57BL/Ks-Lepr^db/db, Harlan) were treated with 5 μg peptide by subcutaneous injection twice a day at 9 a.m. and 5 p.m. (n=5 per group). Blood glucose was measured before (day 0) and after treatment with GLP^CM peptides (Day 2, 4, 7, 10) at 10 a.m. after an overnight fastening period. Data were presented in relation to blood glucose levels measured at day 0.
Best results were obtained with recombinant SEQ ID NO:6 (CM1) and synthetic SEQ ID NO:8 (CM3). In FIG. 9 (y-axis) the relative effect of the treatment is shown. Blood glucose at day ═O was set to 1. Untreated animals undergo continuous increase in blood glucose level over time, whereas animals treated with inventive peptides display grosso modo a continuous decrease of the blood glucose level over time.

B1: GLP-1(7-37)—IP2-RR-GLP2 (peptide)
chain: HAEGTFTSDVSSYLEGQAAKEFIAWLVKGRGRRDFPEEVAIAEELGRRHADGSFSDEMSTILDNLATRDFINWLIQTKITDKK
notes: 83 aa fusion peptide
B1 was tested, and the “anti-hyperglycemia effect (blood glucose relative to day 0)” value was “anti-hyperglycemia effect”.
